Assay in all cases: cell-based or functional assay
Assay [1] deals with wildtype SARS-COV-2 spike protein on pseudotyped virus (SARS-CoV-2) (UniProt P0DTC2).
The target of assay [2] is SARS-COV-2 spike protein (pSARS-COV-2-SΔ19) on HIV-1 pseudotyped particles (SARS-COV-2) (UniProt P0DTC2).
Assay [3] concerns the target SARS-CoV-2 spike protein (wild type, pSARS-COV-2-SΔ19) on HIV-1 pseudotyped particles (SARS-CoV-2) (UniProt P0DTC2).
The target in assay [4] is wildtype SARS-CoV-2 spike protein (pseudovirus) (SARS-CoV-2) (UniProt P0DTC2).

Results on three substances are retold here after patent US20240218057A1.

Broadly, the IC50 is the concentration that inhibits the measured activity by half. One may read the IC90 as the point of the concentration-response curve where the effect stands at 90%. Read a high IC90 as weaker potency.

Turning to C121 (antibody), in assay [1], the neutralization IC50 came to 0.0051 µg/mL and the neutralization IC90 was 0.0198 µg/mL.

In assay [2], C144 (antibody) had a 50% inhibitory concentration (IC50) of 0.00286 µg/mL and a concentration for an effect of 90% (IC90) of 0.0405 µg/mL. For the same substance, in assay [3], the Neutralization activity IC50 was determined as 0.00286 µg/mL and the Neutralization activity IC90 was 0.0405 µg/mL. In addition, in assay [4], the IC50 neutralization turned out to be 0.0037 µg/mL and the IC90 neutralization worked out at 0.0159 µg/mL. In assay [1], this substance had a neutralization IC50 of 0.00374 µg/mL and a neutralization IC90 of 0.0159 µg/mL.

In assay [1], C135 (antibody) displayed a neutralization IC50 of 0.00859 µg/mL and a neutralization IC90 of 0.0406 µg/mL.
